Patent publication US20260242735A1 (UNIVERSIT T BASEL, published 2026)

Key:
Assay in all cases: alanine scan, flow cytometry, HEK293-T;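 note: antibody binding to each alanine-substituted CD33 mutant expressed transiently in HEK293-T, read as fluorescence minus background, mean of duplicates, relative to wild-type CD33 set as 100%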
[1] = target: human CD33 A219S (human, UniProt P20138 18-364)
[2] = target: human CD33 F216A (human, UniProt P20138 18-364)
[3] = target: human CD33 R225A (human, UniProt P20138 18-364)
Sequence of human CD33 R225A (P20138 18-364 R225A limits assumed): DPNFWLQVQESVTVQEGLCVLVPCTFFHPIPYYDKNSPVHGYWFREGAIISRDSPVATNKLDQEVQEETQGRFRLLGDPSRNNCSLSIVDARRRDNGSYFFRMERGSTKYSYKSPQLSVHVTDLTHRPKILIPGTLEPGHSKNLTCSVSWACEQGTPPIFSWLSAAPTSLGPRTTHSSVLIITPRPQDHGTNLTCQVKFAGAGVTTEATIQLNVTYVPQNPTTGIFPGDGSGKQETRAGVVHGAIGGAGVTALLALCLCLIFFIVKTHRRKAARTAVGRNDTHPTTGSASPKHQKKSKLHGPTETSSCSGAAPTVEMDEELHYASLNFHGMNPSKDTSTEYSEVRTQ

[4] = target: human CD33 G188A (human, UniProt P20138 18-364)
Sequence of human CD33 G188A (P20138 18-364 G188A limits assumed): as the sequence (P20138 18-364 R225A limits assumed) above, with G171A, A208R counted along it

[5] = target: human CD33 E224A (human, UniProt P20138 18-364)
Sequence of human CD33 E224A (P20138 18-364 E224A limits assumed): as the sequence (P20138 18-364 R225A limits assumed) above, with E207A, A208R counted along it

[6] = target: human CD33 I199A (human, UniProt P20138 18-364)
Sequence of human CD33 I199A (P20138 18-364 I199A limits assumed): as the sequence (P20138 18-364 R225A limits assumed) above, with I182A, A208R counted along it

[7] = target: human CD33 V231A (human, UniProt P20138 18-364)
Sequence of human CD33 V231A (P20138 18-364 V231A limits assumed): as the sequence (P20138 18-364 R225A limits assumed) above, with A208R, V214A counted along it

[8] = target: human CD33 V196A (human, UniProt P20138 18-364)
Sequence of human CD33 V196A (P20138 18-364 V196A limits assumed): as the sequence (P20138 18-364 R225A limits assumed) above, with V179A, A208R counted along it

[9] = target: human CD33 L210A (human, UniProt P20138 18-364)
Sequence of human CD33 L210A (P20138 18-364 L210A limits assumed): as the sequence (P20138 18-364 R225A limits assumed) above, with L193A, A208R counted along it

[10] = target: human CD33 L229A (human, UniProt P20138 18-364)
Sequence of human CD33 L229A (P20138 18-364 L229A limits assumed): as the sequence (P20138 18-364 R225A limits assumed) above, with A208R, L212A counted along it

[11] = target: human CD33 N237A (human, UniProt P20138 18-364)
Sequence of human CD33 N237A (P20138 18-364 N237A limits assumed): as the sequence (P20138 18-364 R225A limits assumed) above, with A208R, N220A counted along it

[12] = target: human CD33 T208A (human, UniProt P20138 18-364)
Sequence of human CD33 T208A (P20138 18-364 T208A limits assumed): as the sequence (P20138 18-364 R225A limits assumed) above, with T191A, A208R counted along it

[13] = target: human CD33 Y233A (human, UniProt P20138 18-364)
Sequence of human CD33 Y233A (P20138 18-364 Y233A limits assumed): as the sequence (P20138 18-364 R225A limits assumed) above, with A208R, Y216A counted along it

[14] = target: human CD33 I242A (human, UniProt P20138 18-364)
Sequence of human CD33 I242A (P20138 18-364 I242A limits assumed): as the sequence (P20138 18-364 R225A limits assumed) above, with A208R, I225A counted along it

[15] = target: human CD33 A183S (human, UniProt P20138 18-364)
Sequence of human CD33 A183S (P20138 18-364 A183S limits assumed): as the sequence (P20138 18-364 R225A limits assumed) above, with A166S, A208R counted along it

[16] = target: human CD33 P174A (human, UniProt P20138 18-364)
Sequence of human CD33 P174A (P20138 18-364 P174A limits assumed): as the sequence (P20138 18-364 R225A limits assumed) above, with P157A, A208R counted along it

[17] = target: human CD33 T211A (human, UniProt P20138 18-364)
Sequence of human CD33 T211A (P20138 18-364 T211A limits assumed): as the sequence (P20138 18-364 R225A limits assumed) above, with T194A, A208R counted along it

Sequence of human CD33 F216A (P20138 18-364 F216A limits assumed): as the sequence (P20138 18-364 R225A limits assumed) above, with F199A, A208R counted along it
Sequence of human CD33 A219S (P20138 18-364 A219S limits assumed): as the sequence (P20138 18-364 R225A limits assumed) above, with A202S, A208R counted along it

B1: Refmab #2 (antibody, V domains shown)
VH: QVQLVQSGAEVKKPGSSVKVSCKASGGTFSDYAISWVRQAPGQGLEWMGRIIPILGVADYAQKFQGRVTITADKSTRTAYMELSSLRSEDTAVYYCARNWADAFDIWGQGTMVTVSS
VL: DIQLTQSPSSLSASVGDRVTITCRASQGISSVLAWYQQKPGKAPKLLIYDASSLESGVPSRFSGSGSGTDFTLTISSLQPEDFATYYCQQFDSSITFGQGTKLEIK
notes: In the alanine scan antibodies were used as IgG or Fab
Q: Which results are given for B1?
A: Mean % WT Binding [1]: 117%; Mean % WT Binding [2]: 101%; Mean % WT Binding [3]: 123%; Mean % WT Binding [4]: 130%; Mean % WT Binding [5]: 102%; Mean % WT Binding [6]: 125%; Mean % WT Binding [7]: 112%; Mean % WT Binding [8]: 106%; Mean % WT Binding [9]: 98.2%; Mean % WT Binding [10]: 113%; Mean % WT Binding [11]: 112%; Mean % WT Binding [12]: 117%; Mean % WT Binding [13]: 107%; Mean % WT Binding [14]: 98.6%; Mean % WT Binding [15]: 119%; Mean % WT Binding [16]: 117%; Mean % WT Binding [17]: 111%

B2: Refmab #3 (antibody, V domains shown)
VH: QVQLVQSGAEVKKPGSSVKVSCKASGYTFTDYNMHWVRQAPGQGLEWIGYIYPYNGGTGYNQKFKSKATITADESTNTAYMELSSLRSEDTAVYYCARGRPAMDYWGQGTLVTVSS
VL: DIQMTQSPSSLSASVGDRVTITCRASESVDNYGISFMNWFQQKPGKAPKLLIYAASNQGSGVPSRFSGSGSGTDFTLTISSLQPDDFATYYCQQSKEVPWTFGQGTKVEIK
notes: as for B1
Q: Which “Mean % WT Binding” value [1] does the source give for B2 here?
A: 113%

Q: What about the “Mean % WT Binding” value [2] of the same binder?
A: 152%

Q: What about the “Mean % WT Binding” value [3] of the same binder?
A: 98.9%

Q: What about the “Mean % WT Binding” value [4] of the same binder?
A: 85.1%

Q: And the “Mean % WT Binding” value [5]?
A: 83.2%

Q: What about the “Mean % WT Binding” value [6] of the same binder?
A: 112%

Q: And the “Mean % WT Binding” value [7]?
A: 153%

Q: And the “Mean % WT Binding” value [8]?
A: 105%

Q: And the “Mean % WT Binding” value [9]?
A: 84%

Q: And the “Mean % WT Binding” value [10]?
A: 150%

Q: And the “Mean % WT Binding” value [11]?
A: 85.6%

Q: And the “Mean % WT Binding” value [12]?
A: 83.6%

Q: What about the “Mean % WT Binding” value [13] of the same binder?
A: 146%

Q: What about the “Mean % WT Binding” value [14] of the same binder?
A: 128%

Q: What about the “Mean % WT Binding” value [15] of the same binder?
A: 117%

Q: And the “Mean % WT Binding” value [16]?
A: 110%

Q: What about the “Mean % WT Binding” value [17] of the same binder?
A: 96.2%
